This passage reports Kd results from WO2023190852A1 (dated 2023).

In assay [1] the target is RBD derived from the Omicron strain (BA.1 strain; B.1.1.529) (SARS-CoV-2).
The target of assay [2] is spike protein (RBD region) derived from the South African mutant strain (BA.4 strain) (SARS-CoV-2).
The target of assay [3] is RBD derived from the Omicron strain (BA.4 and BA.5 strains) (SARS-CoV-2).

B1: natural human IgG antibody (HIG001697) (antibody, V domains shown)
VH: EVQLVESGGGLVQPGGSLRLSCTASEIIVTRNYMTWVRQAPGKGLEWVAQIYPGGTTYYADSVKGRFTISRHNSMNTMYLQMNSLRTEDTAVYYCARSRGGVDDFWGQGTLVTVSS
VL: DIQMTQSPSSLSASVGDRVTITCQASQDINKFLNWYQQKPGHAPKLLIYDALNLEAGVPSRFSGSASGTYFTFTITSLQPEDIATYYCQQYDNIPPTYGGGTKVDIKR
A word on the Kd: it is a measure of binding affinity in units of concentration. Low values mean a tighter complex, high ones a looser complex. For B1, the Kd in assay [1] is 1.33 nM; in assay [2] it was 0.282 nM; in assay [3], 9.96 nM.
